Laboratory results: WO2014167826A1 (dated 2014)

How the values were obtained:
p3-42 = target: T1, p3-42; assay: sandwich ELISA, 44A3 capture, HRP-2G2 detection
T1 construct: also called Aβ17-42; 17-42
T1 peptide: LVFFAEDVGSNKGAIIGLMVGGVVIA

p3-40 = target: T2, p3-40; assay: sandwich ELISA, 1A10 capture, HRP-2G2 detection
T2 construct: also called Aβ17-40; 17-40
T2 peptide: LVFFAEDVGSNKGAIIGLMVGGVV

B1: 2G2 antibody (antibody, V domains shown)
VH: QVQLQQPGSELVRPGASVKLSCEASGYTFTSYWIHWVKQRPGQGLEWIGNIYPGSGDTNYDERFKSKATLTVDTSSNTAYMQLISLTSDDSAVYYCTRGKNWGQGTTLTVSS
VL: DIQMNQSPSSLSASLGDTITITCHASQNINVWLSWYQQKPGNIPRLLIYKVSNLHTGVPSRFSGSGSGTGFTLTISSLQPEDIATYYCQQGQSYPLTFGGGTKLEIR
notes: Used unlabelled in the Western blot and conjugated to horseradish peroxidase (HRP) as detection antibody in the sandwich ELISAs; only the CDRs are; also called clone 2G2; 2G2 monoclonal antibody
- binding result (p3-42): binds
- binding result (p3-40): binds
